71 sequences from the supplement of paper PMC12636428 can be followed below.

This data set relates to Saccharomyces cerevisiae. As to the kind of experiment: transcriptional activation domain activity (GFP:mCherry ratio, weighted mean of sorted bins, harmonized to initial dataset scale) (arbitrary fluorescence ratio units); higher = stronger transcriptional activation. The conditions noted are these: beta-estradiol 1 µM; induction time 4 h. The procedure: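 53-aa protein tiles (fungal proteins plus yeast TF control tiles) fused C-terminally to a DBD-estrogen-binding domain-mCherry synthetic TF, integrated in S. cerevisiae (URA3 locus) with a GFP reporter. Cells were induced with 1 uM beta-estradiol for 4 h at 30 C, FACS-sorted into 8 bins by GFP:mCherry ratio and barcodes sequenced. Activity is the read-weighted mean bin fluorescence (GFP:mCherry), averaged over barcodes (median 12); tiles under 50 reads were discarded. New active-learning values were harmonized by linear fit onto the scale of the initial (Hummel et al.) dataset. The assay saturates at low and high signal.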

Bounds are passed on as bounds.

Take “MIIVLLVKVVVFNLMCKCLMVNVGRCFGEIVSCTFYFWKHILFYYLRSVVTRL”: the “transcriptional activation domain activity” value turned out to be 37700.
With “KQYCVRPNSGRIESGKEVEVQVLLQAMKNDPPADYKCRDKFLVQSVAITADRE” the figure was 53400; with “LIIDVFPPPPPLLSLFFFLSLSLFFSSSFLLFSFASLLSVQLWRGLIVLFVFL”, 62900; with “RAKADAILRELQDTFFPSAAFRAWLTIVTKLIPLSCAVEARRFRPGLDYTLAT”, 77700.
The figure for “KPLGRQELQRFVALLHSHLETQILEYMHTRRKLSDVVLFLRRTLATCLLLYGC” is 38100; for “TPNNLTSFDDCHLIDGLELTYSDLLVLDDFLAFDFLGLDHFIFMVTPPWENVV” it is 81000; for “GKKGPGGRKGPGGRKGPGGRGGRAGGPKGRGGKGGKGMRPGAGAPPPPPPIAA” it is 52600.
As to “KKKRDNRREKPRKSRKGRSDDEIREGEEGESRRRKRKEGGGRARAATPQEENE”, the “transcriptional activation domain activity” value is 32800.
In the case of “RMMREDYFPVARLFYCAFMLIHPHFEIPRFWQMGMHILHMLASLNYRPAILTM”, the “transcriptional activation domain activity” value stood at 68400.
Regarding “SSIVYLHPPLLHCLFLFPLLLLRLLAILAFSFLYLINLVLGTLGSCFSFFFRD”, the “transcriptional activation domain activity” value turned out to be 34600.
“GGGSAVWIFLYCVWYYFVKLQITGFLSSLLFFSYSLMACCVYGLLTGMVGFLT”: the “transcriptional activation domain activity” value was 60400.
Consider “MIRTLFLFFLFIIIFFFFFFFCFLLFFVFLFLFIFLIVVFTIRKSMNLGFVCV”, for which the “transcriptional activation domain activity” value amounted to 42400.
In the case of “MFMKHGDVSLGYEVCFCILIIITFGLSFFFFFFFHFFLFFHFWLFVSLLFFSD”, the “transcriptional activation domain activity” value came to 41900.
Consider “MSDAAAPAPAPVEEVKPAEAAPEVVPAPRPLRRSPRPRRLRPLRPPPPSAAAE”, for which the “transcriptional activation domain activity” value came out at 28400.
“MSSLFFLRSPCFYLYLYHYLVSFLIFMAFCLVCCLPLLFHFWVFCLLLCFRIY”: the “transcriptional activation domain activity” value came to 63600.
Regarding “ESLKHHEGINMVWKKFQSIFRIIEGIVYYEPVYRAFVRHILHHLHLDNVLWVD”, the “transcriptional activation domain activity” value stood at 70300.
With “GLWLVLLCDAARFPDVVDLVKRKGSRFPASGDLASNESWYLSLWAIKAHILQR” the figure was 64800; with “PPGNRTGAVTIGDESINGSEMPDFSLDLVSNDRQTGLEALDYDIHNYFPQHSE”, 75200.
With “CFSILFSRFAGPSIYLGMRILIMLLYVTLTLWTPWLFYFWVSILSLCIAPFLF”, the “transcriptional activation domain activity” value worked out at 44300.
On to “DLVFGIIIVRSLLIPVVLVFFFTFACFHIYLSHTSFFPAFYSSILGFHPLAFS”, for which the “transcriptional activation domain activity” value turned out to be 73300.
For the sequence “NCMLRTIHLIWESNLSCTCIVNMLVLPCLHTLSITQCLYERKDKDPNPVILEA”, the “transcriptional activation domain activity” value is 59000.
Turning to “EVIAGQQYAGLSFFAFVLRQDDIKSLDLILAEYFKVPTALDIIRSSLYLAIYS”, the “transcriptional activation domain activity” value was determined as 48600.
“SSLSSSSFIKSHPGPDPFQQLSSAEHPNNHSSDDEHSGSQPLPLDSITIGIPP”: the “transcriptional activation domain activity” value amounted to 53200.
The figure for “IVFLLRVLIRCLPTLTQILDFELVSAELSLAELPDTQFKLKELGVSTKVVFTQ” is 45800; for “LNDDDIEKILQPNDIFTTDRTDASTTSSTAIEDIINPSLDPQSAASPVPSSSF” it is 81400; for “LLLLPVSFLVLSGIYSPFILILFDSPWPVLYVLIYFPLCYFVLSPYIIFALSP” it is 51200.
Turning to “STPAPTTAAGGKKEAEKPEEKSEEKPEEKPAEKPAEKPAEKPAEVKPEEKAIQ”, the “transcriptional activation domain activity” value was determined as 25400.
Consider “TVGPVDNNYRDLEAYLETRYLRYCDPSKSLHLMATLMVRCAINILRFMARHPR”, for which the “transcriptional activation domain activity” value stood at 54100.
For the sequence “RELEKREREREEREREERERELEKREREREQRGRELEKRERRGRRGSESWRRG”, the “transcriptional activation domain activity” value worked out at 26100.
In the case of “SSFFFFSFFPGPFLLLYLWICLYPFFLFLGHPFSLGFFLLNYLLFSTATLVAG”, the “transcriptional activation domain activity” value turned out to be 36200.
As to “LFASMIPSMRDLIVIVLTLPNHATVIELQHYALEIAEQLTRFWFLRAENPLYR”, the “transcriptional activation domain activity” value was determined as 62600.
On to “STATESGLAARSKDQIFCIPVPGQPWVDVRLRTLSESINSLLLLATLIKRCPV”, for which the “transcriptional activation domain activity” value stood at 59300.
Regarding “ESVSESESASASESAAEEASAAPEEDAMWSNIMKKFARRDEEESVSESASASE”, the “transcriptional activation domain activity” value came out at 54900.
Consider “MHYLGLFRALDYNASSLIGVVNIDYTTVIYLIIEELIILLLTLAKRNVATQYA”, for which the “transcriptional activation domain activity” value is 61800.
For “SKVYLLKHFEGYIMGKLYGDYEYTFLDLQRTKGMHFVQKYLRMKHVIVFKLSH”, the “transcriptional activation domain activity” value was determined as 58700.
The figure for “MFLLAFCIQAEYQLKLLYMFFYFFCSYVSSLIVFVSYFGVLVVLAGLNCFFTY” is 50300; for “IVFLFLCFAGFWMCVVCLLLLLYTAVPLIPPHSSSSFDSFGLFMLLLVSCMRF” it is 48000.
“MAPTKAVAPAPAAAADGTVKRGRGRPPKDPSERKPKPEPSGRPRGRPKGSGGV”: the “transcriptional activation domain activity” value worked out at 33400.
Regarding “GQGPLRSSYSMAYDSPVDRAMNTPLQQQEGLKAELPHDFLFQHGTDDTMYNLT”, the “transcriptional activation domain activity” value amounted to 36100.
On to “GRHPEQHGVRYSLSKDSGATIVDIYLAHLLECLIPVVGRLKSVVSNLGTMRQT”, for which the “transcriptional activation domain activity” value turned out to be 78200.
In the case of “IINHLIILYLNRHICVMGLLHVPTFLEYYNSLDDPLNDAMVLAVCIDALVNLR”, the “transcriptional activation domain activity” value amounted to 42700.
With “MHYRSAILCHSFILYCLVVVLGVFFKVILVLIYNRVCVPLIVLCLFSYSLSLV”, the “transcriptional activation domain activity” value amounted to 59100.
The figure for “MHTLVLDFDEDVVEQALRLFNLNSRALTTFLSLLVMEYGIALGPMRHRWITSP” is 18100; for “MVGVNGDHELLLCAIMFPPVLLIINSLLVSILFNDCFLVLSDILLCWMLSVVV” it is 50400; for “REAAGRERGERGRDNARGAGEREQPGRVRARLRGGRGKAREGEEGSCVRSAAP” it is 22900.
For “TWPYSSLSELEDLMDRFKRMLTLLRMHLKHVAELEVMVTLWKYMGVLLEFLGS”, the “transcriptional activation domain activity” value came out at 61800.
Consider “GAKVRSWPLTYIYTLYFFMTYFIFYRNLFARLQDPKQVLYLQLGLSMWIVFIY”, for which the “transcriptional activation domain activity” value is 35200.
Consider “GRADARRGRRRRGGGGEGRRGTGDGGRGKTRGGEAGKERRTENRGARGGATRG”, for which the “transcriptional activation domain activity” value turned out to be 39600.
On to “LDRTVEAFRHADALRDVHLYGMVFSYFKMPLWQLTRFSGDIIGLNEYLLLFYN”, for which the “transcriptional activation domain activity” value was 38000.
Take “MADRGTGAGGEGRGRGGFGRGGRGRGGPRGRGGRGGRGGRKDEEKEWVPVTKL”: the “transcriptional activation domain activity” value came to 24800.
With “DANDGRRTLLVVLGDHGMTAAGNHGGASAGETSAALVLASPLFSTVASAPARR”, the “transcriptional activation domain activity” value was below 6570.
“MPLPPLSLSLLVLHSRHSQHSFSLHTYTLTFLFYFPYLLIDLDYLAFFFIFFP”: the “transcriptional activation domain activity” value turned out to be 41400.
On to “ITALVIFWSIPVAFVGSLSNLDSLTNKVHFLRFLNHLPKKLKGLVTSLLPTIL”, for which the “transcriptional activation domain activity” value was found to be 34700.
For the sequence “MAMTPVRGEGNDGYRTSDGEMESGGTRAQGKVIQRSRWVASSHIVAPAEVEKP”, the “transcriptional activation domain activity” value turned out to be 27500.
As for “GELYIYRLISSGLIFDTLWSLVTFGHPKGHPLPQYPCTVDMPDDFFRVRLVCV”, the “transcriptional activation domain activity” value worked out at 65900.
Take “SWFIHFYILSLSCTVFWAVQFVIDGTVLEVIIKNQLARCTSSMTLSQVLLAWF”: the “transcriptional activation domain activity” value came out at 50300.
Take “AEGADAEGEGEEGEKEQEQEKQDGEKDGSEKETGNGQDGKKSEASLSVLNRLL”: the “transcriptional activation domain activity” value came out at 29400.
In the case of “TYPVSMPFDGTLNLDLDMCFLDVTNTDINFSDIFDPNFQFGSYGFPLSLDYDI”, the “transcriptional activation domain activity” value turned out to be 139000.
Take “EGKKREEEEGRRKEGGTEEDREREPKRGDRRSRGKAGQSPEARERGTGGQGRR”: the “transcriptional activation domain activity” value was determined as 37200.
Consider “DMDEEEGGAPAKPVGACARCKNLKVKCEFKTETDPCKRCFNGRHDCVTPGRKK”, for which the “transcriptional activation domain activity” value turned out to be 28500.
Take “MLLHLLPILCPDCIFSASITFAVLSFLLSPCPLLPFSLLPLLCFFISIILRSV”: the “transcriptional activation domain activity” value was 42100.
On to “MNLSRYAVVLATQWGILIMLAMNQLCIPSFLTMFAYIPTKVLQFFHYFIVSLF”, for which the “transcriptional activation domain activity” value was determined as 47700.
Turning to “CLILVFADSWLFLTFTGVLLHGVGIELNKFTCSLGIFSCILLYTSSKVLIYFF”, the “transcriptional activation domain activity” value was 42800.
Turning to “EEQEQDAASKAQEGSKDAPAPKSTENKNEKDAAPNDSSPSKFTKKHKAKKPSK”, the “transcriptional activation domain activity” value was 24700.
On to “AKKAKQEATTEGGEEGSTGKTAKAKETPPTEQKEGGEKKAKATKARGKAGKEA”, for which the “transcriptional activation domain activity” value came to 27300.
As to “AAEEAVKVAVVVEGAKKRRGRPRKDAVDEEGTVLGALADATNTQTATAAPVPM”, the “transcriptional activation domain activity” value stood at 24300.
For the sequence “MFWLTLLPSPCFTFFALCYKFFSFLVSIEFFKSCFLPLPTVSPNLLSSLALLL”, the “transcriptional activation domain activity” value was found to be 63800.
Turning to “FDETIIQLRKTVLSCSTCCSIALKWFAEHEYALVGLLLRCLHMKVRSQIRAFL”, the “transcriptional activation domain activity” value was determined as 44000.
Take “MKSHDLFFFLLLLFQLTSFSSIQLFPAVRVILHVLSHLFMVLHAYCCLPPFIF”: the “transcriptional activation domain activity” value came out at 64400.
Consider “PQPAAGKRKRGRPRTSLPESEPRSEDRRSNTPSAAPQQSAKKSRGRPPKAASK”, for which the “transcriptional activation domain activity” value was determined as 38800.
For the sequence “GRKKRAVKKKAEGAGAGAGGGGGGAEAEGKVETKGKKAAKPKSRTKAGAKAKG”, the “transcriptional activation domain activity” value is below 6570.
